Laboratory results reported in article PMC5617326 (ACS Catalysis, 2017).

B1: linalool synthase from Streptomyces clavuligerus (enzyme, Streptomyces clavuligerus ATCC 27064, UniProt D5SL78 1-329, looked up)
chain: MQEFEFAVPAPSRVSPDLARARARHLDWVHAMDLVRGEEARRRYEFSCVADIGAYGYPHATGADLDLCVDVLGWTFLFDDQFDAGDGRERDALAVCAELTDLLWKGTAATAASPPIVVAFSDCWERMRAGMSDAWRRRTVHEWVDYLAGWPTKLADRAHGAVLDPAAHLRARHRTICCRPLFALAERVGGYEVPRRAWHSSRLDGMRFTTSDAVIGMNELHSFEKDRAQGHANLVLSLVHHGGLTGPEAVTRVCDLVQGSIESFLRLRSGLPELGRALGVEGAVLDRYADALSAFCRGYHDWGRGASRYTTRDHPGDLGLENLVARSSG
B2: 1,8-cineole synthase from Streptomyces clavuligerus (enzyme, Streptomyces clavuligerus ATCC 27064, UniProt B5GMG2 1-330, looked up)
chain: MPAGHEEFDIPFPSRVNPFHARAEDRHVAWMRAMGLITGDAAEATYRRWSPAKVGARWFYLAQGEDLDLGCDIFGWFFAYDDHFDGPTGTDPRQTAAFVNRTVAMLDPRADPTGEHPLNIAFHDLWQRESAPMSPLWQRRAVDHWTQYLTAHITEATNRTRHTSPTIADYLELRHRTGFMPPLLDLIERVWRAEIPAPVYTTPEVQTLLHTTNQNINIVNDVLSLEKEEAHGDPHNLVLVIQHERQSTRQQALATARRMIDEWTDTFIRTEPRLPALCGRLGIPLADRTSLYTAVEGMRAAIRGNYDWCAETNRYAVHRPTGTGRATTPW

Legend:
[1] = biological target: the molecule itself; assay: crystal structure; bLinS apo (25% w/v PEG3350) and co-crystallised with 2 mM FGPP (Morpheus D7, pH 7.5); space group I4, two molecules in the asymmetric unit
[2] = biological target: the molecule itself; assay: crystal structure; bCinS co-crystallised with 2 mM FNPP (Morpheus II A4, pH 6.5), also soaked with 2 mM FGPP; space group P1, two molecules in the asymmetric unit; interface analysed with PISA

Row | Protein | binding result [1] | stoichiometry N [2]
1 | B1 | binds | –
2 | B2 | – | 2
